B1: Catenin alpha-3 (Homo sapiens), Q9UI47-2 (parent)
chain: MSAETPITLNIDPQDLQVQTFTVEKLLEPLIIQVTTLVNCPQNPSSRKKGRSKRASVLLASVEEATWNLLDKGEKIAQEATVLKDELTASLEEVRKESEALKVSAERFTDDPCFLPKREAVVQAARALLAAVTRLLILADMIDVMCLLQHVSAFQRTFESLKNVANKSDLQKTYQKLGKELENLDYLAFKRQQDLKSPNQRDEIAGARASLKENSPLLHSICSACLEHSDVASLKASKDTVCEEIQNALNVISNASQGIQNMTTPPEPQAATLGSALDELENLIVLNPLTVTEEEIRPSLEKRLEAIISGAALLADSSCTRDLHRERIIAECNAIRQALQDLLSEYMNNAGKKERSNTLNIALDNMCKKTRDLRRQLRKAIIDHVSDSFLDTTVPLLVLIEAAKNGREKEIKEYAAIFHEHTSRLVEVANLACSMSTNEDGIKIVKIAANHLETLCPQIINAALALAARPKSQAVKNTMEMYKRTWENHIHVLTEAVDDITSIDDFLAVSGMFLFF
partner: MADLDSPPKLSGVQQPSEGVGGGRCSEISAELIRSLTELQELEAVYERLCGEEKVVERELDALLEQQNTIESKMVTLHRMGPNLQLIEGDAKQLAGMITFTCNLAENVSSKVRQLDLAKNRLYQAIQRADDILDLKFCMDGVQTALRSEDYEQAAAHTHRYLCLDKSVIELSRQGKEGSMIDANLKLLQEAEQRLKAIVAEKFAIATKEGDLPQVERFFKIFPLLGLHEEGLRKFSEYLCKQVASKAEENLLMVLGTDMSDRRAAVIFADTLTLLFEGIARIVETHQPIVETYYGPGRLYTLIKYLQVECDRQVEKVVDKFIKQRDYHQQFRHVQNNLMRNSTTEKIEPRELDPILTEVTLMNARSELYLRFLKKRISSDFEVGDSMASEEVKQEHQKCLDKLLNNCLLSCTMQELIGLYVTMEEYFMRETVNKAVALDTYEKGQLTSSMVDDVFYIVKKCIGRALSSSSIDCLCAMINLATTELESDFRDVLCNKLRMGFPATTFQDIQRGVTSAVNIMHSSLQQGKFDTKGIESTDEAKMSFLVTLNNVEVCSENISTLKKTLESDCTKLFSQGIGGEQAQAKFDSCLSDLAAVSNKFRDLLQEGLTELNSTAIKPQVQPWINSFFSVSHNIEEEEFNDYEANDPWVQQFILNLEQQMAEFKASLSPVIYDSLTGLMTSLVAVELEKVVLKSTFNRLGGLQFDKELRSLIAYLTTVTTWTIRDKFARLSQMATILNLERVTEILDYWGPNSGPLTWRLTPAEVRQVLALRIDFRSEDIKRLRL
B2: Ceroid-lipofuscinosis neuronal protein 6 (Homo sapiens), Q9NWW5 (parent)
chain: MEATRRRQHLGATGGPGAQLGASFLQARHGSVSADEAARTAPFHLDLWFYFTLQNWVLDFGRPIAMLVFPLEWFPLNKPSVGDYFHMAYNVITPFLLLKLIERSPRTLPRSITYVSIIIFIMGASIHLVGDSVNHRLLFSGYQHHLSVRENPIIKNLKPETLIDSFELLYYYDEYLGHCMWYIPFFLILFMYFSGCFTASKAESLIPGPALLLVAPSGLYYWYLVTEGQIFILFIFTFFAMLALVLHQKRKRLFLDSNGLFLFSSFALTLLLVALWVAWLWNDPVLRKKYPGVIYVPEPWAFYTLHVSSRH
partner: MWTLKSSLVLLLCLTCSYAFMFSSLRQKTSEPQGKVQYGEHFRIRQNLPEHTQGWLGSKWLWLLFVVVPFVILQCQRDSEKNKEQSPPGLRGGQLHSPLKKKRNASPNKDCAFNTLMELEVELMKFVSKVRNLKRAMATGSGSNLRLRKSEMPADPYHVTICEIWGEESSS
B3: Golgi SNAP receptor complex member 2 (Homo sapiens), O14653 (parent)
chain: MDPLFQQTHKQVHEIQSCMGRLETADKQSVHIVENEIQASIDQIFSRLERLEILSSKEPPNKRQNARLRVDQLKYDVQHLQTALRNFQHRRHAREQQERQREELLSRTFTTNDSDTTIPMDESLQFNSSLQKVHNGMDDLILDGHNILDGLRTQRLTLKGTQKKILDIANMLGLSNTVMRLIEKRAFQDKYFMIGGMLLTCVVMFLVVQYLT
partner: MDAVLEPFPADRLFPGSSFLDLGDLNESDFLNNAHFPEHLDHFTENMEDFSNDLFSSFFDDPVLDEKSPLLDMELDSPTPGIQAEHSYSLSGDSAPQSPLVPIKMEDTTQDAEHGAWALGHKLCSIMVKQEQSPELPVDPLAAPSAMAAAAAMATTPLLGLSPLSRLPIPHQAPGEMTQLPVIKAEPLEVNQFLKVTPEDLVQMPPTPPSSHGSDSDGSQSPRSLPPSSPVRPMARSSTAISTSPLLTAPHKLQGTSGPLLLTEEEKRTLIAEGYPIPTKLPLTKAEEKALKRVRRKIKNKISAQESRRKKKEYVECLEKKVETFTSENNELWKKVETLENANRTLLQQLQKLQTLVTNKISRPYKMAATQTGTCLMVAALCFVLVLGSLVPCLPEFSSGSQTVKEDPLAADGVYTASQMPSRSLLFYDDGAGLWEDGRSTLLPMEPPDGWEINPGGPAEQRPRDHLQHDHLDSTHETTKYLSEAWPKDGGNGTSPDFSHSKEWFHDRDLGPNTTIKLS
B4: Succinate--CoA ligase [ADP-forming] subunit beta, mitochondrial (Homo sapiens), Q9P2R7 (parent)
chain: MAASMFYGRLVAVATLRNHRPRTAQRAAAQVLGSSGLFNNHGLQVQQQQQRNLSLHEYMSMELLQEAGVSVPKGYVAKSPDEAYAIAKKLGSKDVVIKAQVLAGGRGKGTFESGLKGGVKIVFSPEEAKAVSSQMIGKKLFTKQTGEKGRICNQVLVCERKYPRREYYFAITMERSFQGPVLIGSSHGGVNIEDVAAESPEAIIKEPIDIEEGIKKEQALQLAQKMGFPPNIVESAAENMVKLYSLFLKYDATMIEINPMVEDSDGAVLCMDAKINFDSNSAYRQKKIFDLQDWTQEDERDKDAAKANLNYIGLDGNIGCLVNGAGLAMATMDIIKLHGGTPANFLDVGGGATVHQVTEAFKLITSDKKVLAILVNIFGGIMRCDVIAQGIVMAVKDLEIKIPVVVRLQGTRVDDAKALIADSGLKILACDDLDEAARMVVKLSEIVTLAKQAHVDVKFQLPI
partner: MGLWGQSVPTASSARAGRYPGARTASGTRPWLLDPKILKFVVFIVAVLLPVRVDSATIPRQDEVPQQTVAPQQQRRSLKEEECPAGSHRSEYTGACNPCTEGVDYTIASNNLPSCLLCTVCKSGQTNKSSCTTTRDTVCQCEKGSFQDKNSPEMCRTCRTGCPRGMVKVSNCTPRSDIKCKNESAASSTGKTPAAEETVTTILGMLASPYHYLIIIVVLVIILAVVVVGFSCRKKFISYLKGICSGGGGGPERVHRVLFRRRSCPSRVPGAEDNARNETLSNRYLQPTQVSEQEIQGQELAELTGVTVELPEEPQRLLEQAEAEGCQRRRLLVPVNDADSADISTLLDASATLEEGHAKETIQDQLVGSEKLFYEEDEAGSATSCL
B5: Golgi SNAP receptor complex member 2 (Homo sapiens), O14653 (parent)
chain: B3 chain
partner: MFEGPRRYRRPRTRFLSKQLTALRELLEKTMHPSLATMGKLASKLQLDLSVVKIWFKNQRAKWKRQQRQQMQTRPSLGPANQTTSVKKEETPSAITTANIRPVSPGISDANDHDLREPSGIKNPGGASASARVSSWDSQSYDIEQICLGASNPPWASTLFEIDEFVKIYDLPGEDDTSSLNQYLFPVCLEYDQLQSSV
B6: Ceroid-lipofuscinosis neuronal protein 6 (Homo sapiens), Q9NWW5 (parent)
chain: B2 chain
partner: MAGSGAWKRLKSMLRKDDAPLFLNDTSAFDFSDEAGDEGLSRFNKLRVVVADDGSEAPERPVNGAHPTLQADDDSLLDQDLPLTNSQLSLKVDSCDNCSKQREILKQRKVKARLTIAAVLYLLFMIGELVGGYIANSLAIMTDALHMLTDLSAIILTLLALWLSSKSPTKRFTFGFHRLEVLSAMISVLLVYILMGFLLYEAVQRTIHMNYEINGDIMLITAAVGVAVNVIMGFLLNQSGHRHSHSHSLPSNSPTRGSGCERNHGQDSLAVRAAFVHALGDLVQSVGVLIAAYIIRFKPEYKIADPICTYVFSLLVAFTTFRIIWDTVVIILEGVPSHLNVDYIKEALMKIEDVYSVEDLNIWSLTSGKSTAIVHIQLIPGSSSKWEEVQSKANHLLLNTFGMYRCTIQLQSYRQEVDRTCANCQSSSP
B7: Catenin alpha-3 (Homo sapiens), Q9UI47-2 (parent)
chain: B1 chain
partner: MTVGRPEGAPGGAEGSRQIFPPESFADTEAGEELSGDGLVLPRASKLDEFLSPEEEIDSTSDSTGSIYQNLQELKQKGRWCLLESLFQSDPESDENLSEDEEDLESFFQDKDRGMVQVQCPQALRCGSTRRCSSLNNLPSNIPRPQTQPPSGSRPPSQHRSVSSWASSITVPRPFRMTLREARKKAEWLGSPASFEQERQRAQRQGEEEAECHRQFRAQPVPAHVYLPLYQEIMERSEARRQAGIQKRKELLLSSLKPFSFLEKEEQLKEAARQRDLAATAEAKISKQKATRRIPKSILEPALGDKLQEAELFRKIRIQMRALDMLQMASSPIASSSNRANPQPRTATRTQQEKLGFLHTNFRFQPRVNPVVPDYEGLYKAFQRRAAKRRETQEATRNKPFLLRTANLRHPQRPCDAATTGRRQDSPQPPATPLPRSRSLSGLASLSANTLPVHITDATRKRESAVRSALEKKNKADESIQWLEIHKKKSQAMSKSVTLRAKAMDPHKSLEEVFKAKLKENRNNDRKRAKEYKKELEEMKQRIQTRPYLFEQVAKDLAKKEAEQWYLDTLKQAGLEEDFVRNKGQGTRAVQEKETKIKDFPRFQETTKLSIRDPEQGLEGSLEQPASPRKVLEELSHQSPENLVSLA

Variants of: B1
Conditions: with cog4_human COG4, Q9H9E3

Variant	effect of a mutation on the interaction
V94D	with no effect

Variants of: B2
Conditions: with FAM209A

Variant	effect of a mutation on the interaction
L47F	with no effect
G123D	with no effect

Variants of: B3
Conditions: with cr3l1_human CREB3L1, Q96BA8

Variant	effect of a mutation on the interaction
G144W	with no effect

Variants of: B4
Conditions: with tr10d_human TNFRSF10D

Variant	effect of a mutation on the interaction
D251N	disrupting interaction strength
G118R	disrupting interaction strength

Variants of: B5
Conditions: with leutx_human LEUTX

Variant	effect of a mutation on the interaction
G144W	with no effect

Variants of: B6
Conditions: with znt4_human SLC30A4, O14863

Variant	effect of a mutation on the interaction
L47F	disrupting interaction strength
G123D	disrupting interaction strength
R6T	with no effect

Variants of: B7
Conditions: with FAM161B

Variant	effect of a mutation on the interaction
V94D	with no effect

Reference: IntAct's records for PubMed 32296183
